Results as given in patent publication US20080267967A1 (TRILLIUM THERAPEUTICS, published 2008).

B1: mouse CD200 on dendritic cells (ligand, UniProt O54901 31-278, looked up)
chain: QVEVVTQDERKALHTTASLRCSLKTSQEPLIVTWQKKKAVSPENMVTYSKTHGVVIQPAYKDRINVTELGLWNSSITFWNTTLEDEGCYMCLFNTFGSQKVSGTACLTLYVQPIVHLHYNYFEDHLNITCSATARPAPAISWKGTGTGIENSTESHFHSNGTTSVTSILRVKDPKTQVGKEVICQVLYLGNVIDYKQSLDKGFWFSVPLLLSIVSLVILLVLISILLYWKRHRNQERGESSQGMQRMK
B2: CD200Fc immunoadhesin (extracellular domain of CD200 linked to a murine IgG2a Fc region) (Fc fusion, mouse, UniProt O54901 31-232, looked up)
chain: QVEVVTQDERKALHTTASLRCSLKTSQEPLIVTWQKKKAVSPENMVTYSKTHGVVIQPAYKDRINVTELGLWNSSITFWNTTLEDEGCYMCLFNTFGSQKVSGTACLTLYVQPIVHLHYNYFEDHLNITCSATARPAPAISWKGTGTGIENSTESHFHSNGTTSVTSILRVKDPKTQVGKEVICQVLYLGNVIDYKQSLDKG
modifications: FITC-labelled in the binding assays
notes: extracellular domain; Made in a baculovirus system in Sf insect cells; also called FITC-CD200Fc; FITC-CD200:Fc; not shown: murine IgG2a Fc region; the ch

Columns and labels:
[1] = molecular target: T1, CD200 receptor (CD200R) on primary mouse cells, isoform not stated (mouse) (UniProt Q9ES57); test: cell-based or functional assay
T1 sequence: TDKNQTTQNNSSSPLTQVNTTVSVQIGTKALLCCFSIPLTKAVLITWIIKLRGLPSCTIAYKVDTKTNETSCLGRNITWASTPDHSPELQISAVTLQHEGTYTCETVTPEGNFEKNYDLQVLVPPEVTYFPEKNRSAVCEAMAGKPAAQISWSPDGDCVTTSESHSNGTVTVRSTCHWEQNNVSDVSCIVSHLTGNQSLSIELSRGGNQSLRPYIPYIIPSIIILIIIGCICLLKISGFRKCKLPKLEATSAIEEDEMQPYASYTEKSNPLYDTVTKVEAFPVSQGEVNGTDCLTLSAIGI

murine CD200R2a = molecular target: T2, murine CD200R2a (murine, UniProt Q6XJV6 25-249); test: FACS, FITC-CD200Fc on COS cells transiently transfected with CD200R isoform cDNA
T2 sequence: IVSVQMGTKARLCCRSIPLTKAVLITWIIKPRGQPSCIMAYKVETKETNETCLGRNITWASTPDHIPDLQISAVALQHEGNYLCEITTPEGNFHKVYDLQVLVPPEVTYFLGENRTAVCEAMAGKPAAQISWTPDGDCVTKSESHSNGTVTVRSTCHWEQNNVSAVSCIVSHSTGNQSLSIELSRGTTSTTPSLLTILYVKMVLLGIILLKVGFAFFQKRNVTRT
Description: (§1) In order to assess whether the various CD200R isoforms described could all serve as counter-igands for CD200, an immunoadhesin (CD200Fc) incorporating the extracellular domain of CD200 linked to a murine IgG2a Fc region as described (51) was used. CD200Fc was coupled to FITC and the inventors then examined by FACS analysis binding of FITC-labeled CD200Fc to COS cells transiently transfected with pBK vectors encoding cDNAs for the various CD200R isoforms. As control the inventors examined binding to COS cells transduced with empty pBK vectors. COS cells expressing the different CD200R isoforms all bound FITC-CD200Fc.

murine CD200R3a = molecular target: T3, murine CD200R3a (murine, UniProt Q5UKY4 26-272); test: as above
T3 sequence: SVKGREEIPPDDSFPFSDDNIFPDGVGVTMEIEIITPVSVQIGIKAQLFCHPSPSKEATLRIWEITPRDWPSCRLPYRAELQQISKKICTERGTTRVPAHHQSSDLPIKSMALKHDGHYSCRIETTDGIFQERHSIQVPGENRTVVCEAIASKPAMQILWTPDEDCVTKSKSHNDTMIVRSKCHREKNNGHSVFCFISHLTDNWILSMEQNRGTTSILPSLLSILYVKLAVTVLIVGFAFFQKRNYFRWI
Description: as §1

| Binder | IFNγ in MLC at 40 hrs; CD200R+ cells + CD200+ DC [1] [ng/mL] | IFNγ in MLC; CD200R+ cells + CD200+ DC, no mAb [1] [ng/mL] | IL-2 in MLC at 40 hrs; CD200R+ cells + CD200+ DC [1] [ng/mL] | IL-2 in MLC; CD200R+ cells + CD200+ DC, no mAb [1] [ng/mL] | IL-4 in MLC at 40 hrs; CD200R+ cells + CD200+ DC [1] [ng/mL] | IL-10 in MLC at 40 hrs; CD200R+ cells + CD200+ DC [1] [ng/mL] | binding result (murine CD200R2a) | binding result (murine CD200R3a) |
| --- | --- | --- | --- | --- | --- | --- | --- | --- |
| B1 | 0.145 | 0.17 | 0.16 | 0.165 | 0.255 | 0.225 |  |  |
| B2 |  |  |  |  |  |  | binds | binds |
